This note sets out measurements from the supplement of paper PMC9170038.

The data set has as its system MS2 coat protein. As to the kind of experiment: apparent KD of MS2 coat protein; designed switch direction (-1 OFF switch, 1 ON switch): 1; higher = weaker reporter binding. The method in brief: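 For each design, the apparent KD is the median over clusters of curves fitted to normalised cluster fluorescence. Clusters held RNA switches with common flanks, transcribed on Illumina chips by stalled E. coli RNA polymerase. These were titrated with SNAP-549-labelled MS2 coat protein, doubling from 0.7 or 1.5 nM to 3 µM, without input, with 200 uM small-molecule ligand, or with an oligonucleotide input.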

The mark [1] stands for this setting: input ligand: microRNA oligo, concentration not stated.
Setting [2] is: Eterna round: R95, input ligand: FMN 200 uM.
Where [3] appears, read: Eterna round: R95, input ligand: microRNA oligo, concentration not stated.
[4] abbreviates: Eterna round: R95, input ligand: none.

On to “AAUUGUUCCUGAGGAUAUCAGUAGUUUGCUCUUUGAGAAGGCAGUACAUGAGGAUCACCCAUGUUGUGGUUUGAUAGAAUGAUA [JR_SSNG1_Sub006] (Eterna round: R96, puzzle: Same State NG 1)”, for which the “apparent KD of MS2 coat protein” value runs as follows: (input ligand: FMN 200 uM) 131 nM; under setting [1], 103 nM; (input ligand: none) 137 nM.

In the case of “AAUUGUUUCUGAGGAUAUCAGUAGUAUGCCAAUUGAGAAGGCAGUACAUGAGGAUCACCCAUGUUAUGGUUUGAUAGAAUGAUA [JR_SSNG1_Sub001] (Eterna round: R96, puzzle: Same State NG 1)”, the “apparent KD of MS2 coat protein” value came out at 74.8 nM (input ligand: FMN 200 uM), 51.2 nM under setting [1] and 54.1 nM (input ligand: none).

On to “AAUUUAAUACAUGAGGAUCACCCAUGUAAAUUAAUUAAGAUCUAGGAUAUCAGCUCGUUUAGAGCUGAGAAGGAGAUCACAUGU [SSNG3/19-B3] (Eterna round: R96, puzzle: Same State NG 3)”, for which the “apparent KD of MS2 coat protein” value under setting [1] worked out at 12.5 nM.

With “AAUUUAAUACAUGAGGAUCACCCAUGUAAUACUAGUAAGAUCUAGGAUAUCAGCUCGAAUAGAGCUGAGAAGGAGAUCACAUGU [SSNG3/19-C1] (Eterna round: R96, puzzle: Same State NG 3)”, the “apparent KD of MS2 coat protein” value is, setting by setting: (input ligand: FMN 200 uM) 24.2 nM; under setting [1], 63.9 nM; (input ligand: none) 82 nM.

For the sequence “AAUUUAAUACAUGAGGAUCACCCAUGUAAUACUUGUAAGAUCAAGGAUAUCAGCUCGAUUAGAGCUGAGAAGGUGAUCACAUGU [SSNG3/19-D2] (Eterna round: R96, puzzle: Same State NG 3)”, the “apparent KD of MS2 coat protein” value under setting [1] came out at 21.6 nM.

In the case of “ACAAGACAUGAGGAUCACCCAUGUAUAAAUUACACAGGAUAUCGGCAGGCAGCACCUGCACGAGAAGGGUGACUUC [Inbilera] (puzzle: Same State 1)”, the “apparent KD of MS2 coat protein” value amounted to 193 nM under setting [2], 21.7 nM under setting [3] and 27.3 nM under setting [4].

Turning to “ACAAGCUUUUCUGUAUUGAAAGGUGGGAUACAUGAGGAUCACCCAUGUUUUUUCGUUUGUUUUGUUCCUCGUCUUAU [JR_SHM208A_Sub090] (puzzle: Sensor for hsa-mir-208a)”, the “apparent KD of MS2 coat protein” value by setting is: under setting [2], 87.7 nM; under setting [3], 23.9 nM; under setting [4], 116 nM.

In the case of “ACAAGCUUUUUGCUCAUCUUAUGUCCGAAACAUGAGGAUCACCCAUGUAUAGAUUAUGUGUUGUUGUAGAUGCAAGA [JR_SHM208A_Sub062] (puzzle: Sensor for hsa-mir-208a)”, the “apparent KD of MS2 coat protein” value under setting [2] is 31.8 nM, the “apparent KD of MS2 coat protein” value under setting [3] stood at 25.9 nM and the “apparent KD of MS2 coat protein” value under setting [4] turned out to be 42.9 nM.

As for “ACAAUCUGGGUAGGAUAUCUAGGAUAUGGGAAAGACUAAGUCUGUAGGUCACCUAACCCAGAUGGAGAGAAGGACCCAACACAC [pwkr ssNG2 2FMN + F9.43] (Eterna round: R96, puzzle: Same State NG 2)”, the “apparent KD of MS2 coat protein” value by setting is: (input ligand: FMN 200 uM) 95.8 nM; under setting [1], 3.94 nM; (input ligand: none) 202 nM.

In the case of “ACACCACAUGAGGAUCACCCAUGUGUCAAUAACACAGGAUAUCACCCGGAAAACAACGGGUGAGAAGGGUGACCGA [Edan] (puzzle: Same State 1)”, the “apparent KD of MS2 coat protein” value turned out to be 107 nM under setting [2], 44.6 nM under setting [3] and 75.8 nM under setting [4].

As to “ACACGGAUACAUGAGGAUCACCCAUGUACAUGGGUUAUUACAAGCUUUUUGCUUGGGAUUAUUGGGAUUAUUAUUAA [Default title] (puzzle: Sensor for hsa-mir-208a version 2)”, the “apparent KD of MS2 coat protein” value runs as follows: under setting [2], 122 nM; under setting [3], 156 nM; under setting [4], 153 nM.

Take “ACAUGAAAGGCAGGAUAUUUUGUACCUACAUGUGACAUGAGGAUCACCCAUGUGGUAAGUAUAAGAGAGAAGGGUCAGAUAUGU [Equivalence 2 - Jieux - Same State NG 2] (Eterna round: R96, puzzle: Same State NG 2)”: the “apparent KD of MS2 coat protein” value by setting is: (input ligand: FMN 200 uM) 28.9 nM; under setting [1], 31.7 nM; (input ligand: none) 37.2 nM.

In the case of “ACAUGAAAGUUAGGAUAUUUUGUACCUACAUGUGACAUGAGGAUCACCCAUGUGGUAAGUAUAAGAGAGAAGGAGCAGAUAUGU [Equivalence 1 - Jieux - Same State NG 2] (Eterna round: R96, puzzle: Same State NG 2)”, the “apparent KD of MS2 coat protein” value came out at 45.1 nM (input ligand: FMN 200 uM), 48.1 nM under setting [1] and 52.8 nM (input ligand: none).

Consider “ACAUGAACAUGAGGAUCACCCAUGUUUAGGAUCACCCAUGCUCAGGAUAUAGCAUGAGGACAUGACUAGAAGGGAGGUGCUGAG [Same State NG3 S2] (Eterna round: R96, puzzle: Same State NG 3)”, for which the “apparent KD of MS2 coat protein” value (input ligand: FMN 200 uM) worked out at 41 nM, the “apparent KD of MS2 coat protein” value under setting [1] amounted to 27 nM and the “apparent KD of MS2 coat protein” value (input ligand: none) is 36.1 nM.

In the case of “ACAUGAGAAAGAGGAUAUGUUGUACCUACAUGUGACAUGAGGAUCACCCAUGUGGUAAGUAUGAUACAGAAGGCUUAGAUAUGU [Equivalance 61 - Jieux - Same State NG 2] (Eterna round: R96, puzzle: Same State NG 2)”, the “apparent KD of MS2 coat protein” value by setting is: (input ligand: FMN 200 uM) 15.1 nM; under setting [1], 17.8 nM; (input ligand: none) 25.6 nM.

Regarding “ACAUGAGACAUAGGAUAUGUUGUACCUACAUGUGACAUGAGGAUCACCCAUGUGGUAAGUAUGAGGCAGAAGGAUGAGAUAUGU [Equivalence 40 - Jieux - Same State NG 2] (Eterna round: R96, puzzle: Same State NG 2)”, the “apparent KD of MS2 coat protein” value (input ligand: FMN 200 uM) amounted to 50.3 nM, the “apparent KD of MS2 coat protein” value under setting [1] was 37 nM and the “apparent KD of MS2 coat protein” value (input ligand: none) was determined as 74.1 nM.

For the sequence “ACAUGAGACCUAGGAUAUGUUGUACCUACAUGUGACAUGAGGAUCACCCAUGUGGUAAGUAUGAGACAGAAGGAGGAGAUAUGU [Equivalence 28 - Jieux - Same State NG 2] (Eterna round: R96, puzzle: Same State NG 2)”, the “apparent KD of MS2 coat protein” value is, setting by setting: (input ligand: FMN 200 uM) 12.8 nM; under setting [1], 21.2 nM; (input ligand: none) 32 nM.

Regarding “ACAUGAGAGAAAGGAUAUCUUGUACCUACAUGUGACAUGAGGAUCACCCAUGUGGUAAGUAUGAGAGAGAAGGUUCAGAUAUGU [Equivalence 33 - Jieux - Same State NG 2] (Eterna round: R96, puzzle: Same State NG 2)”, the “apparent KD of MS2 coat protein” value was 15.9 nM (input ligand: FMN 200 uM), 25.8 nM under setting [1] and 29.8 nM (input ligand: none).

On to “ACAUGAGAGAAAGGAUAUGGUGUACCUACAUGUGACAUGAGGAUCACCCAUGUGGUAAGUAUGACUCAGAAGGUUCAGAUAUGU [Equivalance 73 - Jieux - Same State NG 2] (Eterna round: R96, puzzle: Same State NG 2)”, for which the “apparent KD of MS2 coat protein” value (input ligand: FMN 200 uM) worked out at 16.9 nM, the “apparent KD of MS2 coat protein” value under setting [1] came to 65.6 nM and the “apparent KD of MS2 coat protein” value (input ligand: none) turned out to be 126 nM.

For the sequence “ACAUGAGAGAUAGGAUAUCUUGUACCUACAUGUGACAUGAGGAUCACCCAUGUGGUAAGUAUGACAGAGAAGGAUCAGAUAUGU [Equivalance 70 - Jieux - Same State NG 2] (Eterna round: R96, puzzle: Same State NG 2)”, the “apparent KD of MS2 coat protein” value reads like this: (input ligand: FMN 200 uM) 20.5 nM; under setting [1], 62.8 nM; (input ligand: none) 82.4 nM.
